Molecular target: soluble human fibrin (human) (UniProt P02679)
Experiment: SPR

Sequence of UniProt P02679 (P02679 whole entry, looked up, tested part not stated): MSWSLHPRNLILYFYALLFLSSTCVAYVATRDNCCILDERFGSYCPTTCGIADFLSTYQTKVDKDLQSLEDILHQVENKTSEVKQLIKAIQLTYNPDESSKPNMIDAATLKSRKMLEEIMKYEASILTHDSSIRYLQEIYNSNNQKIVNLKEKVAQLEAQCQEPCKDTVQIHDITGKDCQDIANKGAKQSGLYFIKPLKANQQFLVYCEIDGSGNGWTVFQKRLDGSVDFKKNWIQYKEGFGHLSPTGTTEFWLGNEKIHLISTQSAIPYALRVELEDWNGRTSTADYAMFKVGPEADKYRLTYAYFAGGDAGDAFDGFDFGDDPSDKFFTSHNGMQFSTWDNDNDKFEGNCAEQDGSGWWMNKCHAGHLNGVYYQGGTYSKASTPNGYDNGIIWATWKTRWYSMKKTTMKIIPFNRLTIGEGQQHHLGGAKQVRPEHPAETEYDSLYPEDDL

- KD2 (heterogeneous ligand model): 3.79e-07
- KD2 (heterogeneous ligand model, primed with PT25-2): 1.37e-07
- Kd1 (heterogeneous ligand model): 1.47e-07
- Kd1 (heterogeneous ligand model, primed with PT25-2): 4.78e-08
- fold increase of ka1 on priming with PT25-2 (against unprimed αIIbβ3): 3 fold
- ka1 (heterogeneous ligand model): 13400
- kd1 (heterogeneous ligand model): 0.00196
Substance: full-length, purified αIIbβ3 (from UniProt P08514 32-1039; P05106 27-788) (receptor)
